What was measured:
Conditions in all cases: both partners purified
[1] = molecular target: T1, Smc3 (S. cerevisiae (budding yeast), UniProt P47037 1-1230); experiment: cross-linking; CLMS with sulfo-SDA; cohesin, Tof1-Csm3 and Chl1 with or without Mrc1 at 300-350 nM, 30 °C 5 min, cross-linker 2 h at 4 °C, UV 365 nm; LC-MS/MS, 1% FDR at residue-pair level; two samples merged
T1 construct: Smc3, budding yeast; the Smc3 chain of m1; Stood in the cross-linking sample as a chain of cohesin; source: purified as part of cohesin, as previously described (Minamino et al. 2018)
T1 sequence (looked up): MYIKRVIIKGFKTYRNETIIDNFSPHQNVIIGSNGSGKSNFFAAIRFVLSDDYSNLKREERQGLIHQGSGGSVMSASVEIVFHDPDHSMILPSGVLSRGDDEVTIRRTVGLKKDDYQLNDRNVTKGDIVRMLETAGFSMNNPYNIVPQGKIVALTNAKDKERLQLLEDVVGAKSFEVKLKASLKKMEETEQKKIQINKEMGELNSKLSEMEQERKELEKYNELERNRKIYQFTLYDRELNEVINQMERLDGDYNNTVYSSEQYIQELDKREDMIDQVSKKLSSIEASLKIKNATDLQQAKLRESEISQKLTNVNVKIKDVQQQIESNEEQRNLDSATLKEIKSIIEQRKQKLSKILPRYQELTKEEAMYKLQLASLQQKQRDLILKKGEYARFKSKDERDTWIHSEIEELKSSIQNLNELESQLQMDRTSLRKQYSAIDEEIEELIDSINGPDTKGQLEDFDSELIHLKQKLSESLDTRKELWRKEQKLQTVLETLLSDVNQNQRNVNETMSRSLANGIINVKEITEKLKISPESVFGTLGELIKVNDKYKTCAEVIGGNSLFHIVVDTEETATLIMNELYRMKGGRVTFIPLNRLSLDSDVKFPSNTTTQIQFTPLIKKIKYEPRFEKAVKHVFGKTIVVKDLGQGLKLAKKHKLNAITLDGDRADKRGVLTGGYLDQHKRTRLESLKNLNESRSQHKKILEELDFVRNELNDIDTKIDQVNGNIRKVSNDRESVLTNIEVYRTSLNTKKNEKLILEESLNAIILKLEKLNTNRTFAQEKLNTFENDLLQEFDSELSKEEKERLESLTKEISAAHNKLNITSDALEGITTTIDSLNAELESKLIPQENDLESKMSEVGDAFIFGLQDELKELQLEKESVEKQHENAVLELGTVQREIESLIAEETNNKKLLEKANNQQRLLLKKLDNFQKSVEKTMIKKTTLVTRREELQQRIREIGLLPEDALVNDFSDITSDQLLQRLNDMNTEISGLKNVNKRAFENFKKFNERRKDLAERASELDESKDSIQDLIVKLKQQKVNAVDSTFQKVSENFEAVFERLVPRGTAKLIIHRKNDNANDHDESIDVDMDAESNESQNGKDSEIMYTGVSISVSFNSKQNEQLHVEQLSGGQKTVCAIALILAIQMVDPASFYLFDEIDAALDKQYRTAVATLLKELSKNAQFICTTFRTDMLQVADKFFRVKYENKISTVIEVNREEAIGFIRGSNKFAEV

[2] = molecular target: T2, Scc3 (S. cerevisiae (budding yeast), UniProt P40541 1-1150); experiment: as above
T2 construct: Scc3, budding yeast; the Scc3 chain of m1; Stood in the cross-linking sample as a chain of cohesin; source: purified as part of cohesin, as previously described (Minamino et al. 2018)
T2 sequence (looked up): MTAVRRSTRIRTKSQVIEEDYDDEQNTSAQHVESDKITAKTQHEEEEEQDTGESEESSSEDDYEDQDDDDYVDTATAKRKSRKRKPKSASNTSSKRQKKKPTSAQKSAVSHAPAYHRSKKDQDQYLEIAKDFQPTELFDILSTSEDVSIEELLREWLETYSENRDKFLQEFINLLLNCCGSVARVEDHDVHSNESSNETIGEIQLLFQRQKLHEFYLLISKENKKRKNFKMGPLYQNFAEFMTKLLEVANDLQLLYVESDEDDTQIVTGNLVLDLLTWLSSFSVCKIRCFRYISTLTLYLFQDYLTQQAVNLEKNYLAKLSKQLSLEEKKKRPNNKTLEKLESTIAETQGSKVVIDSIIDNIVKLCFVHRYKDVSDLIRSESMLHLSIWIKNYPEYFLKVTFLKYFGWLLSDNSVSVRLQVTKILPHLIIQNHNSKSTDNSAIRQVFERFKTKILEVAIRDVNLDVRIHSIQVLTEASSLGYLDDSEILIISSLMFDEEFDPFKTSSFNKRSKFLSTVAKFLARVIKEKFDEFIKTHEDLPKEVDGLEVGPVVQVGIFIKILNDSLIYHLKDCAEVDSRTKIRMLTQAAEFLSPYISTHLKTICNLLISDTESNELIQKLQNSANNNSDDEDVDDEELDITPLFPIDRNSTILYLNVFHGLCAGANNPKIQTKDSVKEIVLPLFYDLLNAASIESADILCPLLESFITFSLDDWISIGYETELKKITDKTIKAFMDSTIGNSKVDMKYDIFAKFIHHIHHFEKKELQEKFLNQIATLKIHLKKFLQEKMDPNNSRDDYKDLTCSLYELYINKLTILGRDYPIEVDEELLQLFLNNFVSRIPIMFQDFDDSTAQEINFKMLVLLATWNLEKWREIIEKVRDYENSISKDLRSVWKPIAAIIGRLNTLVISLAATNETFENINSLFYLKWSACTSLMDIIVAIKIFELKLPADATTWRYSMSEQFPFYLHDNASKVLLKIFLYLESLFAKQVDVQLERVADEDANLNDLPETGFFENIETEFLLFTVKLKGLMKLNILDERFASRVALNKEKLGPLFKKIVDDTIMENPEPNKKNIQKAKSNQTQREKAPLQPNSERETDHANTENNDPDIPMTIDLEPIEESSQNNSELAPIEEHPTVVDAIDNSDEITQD

[3] = molecular target: T3, cohesin tetramer complex (Smc1-Smc3-Scc1-Scc3) (S. cerevisiae (budding yeast), UniProt P32908 1-1225; P47037 1-1230; Q12158 1-566; P40541 1-1150); experiment: SEC; Superose 6 Increase 3.2/300; 25 mM HEPES-KOH pH 7.6, 100 mM sodium acetate, 0.5 mM TCEP, 2 mM EDTA; proteins at the same molarity incubated together or separately at 30 °C for 5 min; fractions analysed by immunoblotting
T3 construct: Smc1, cohesin subunit, budding yeast; Smc3, cohesin subunit, budding yeast; Scc1, cohesin subunit, budding yeast; Scc3, cohesin subunit, budding yeast; also called cohesin complex; source: purified as previously described (Minamino et al. 2018): IgG agarose, 3C protease cleavage; copies: + + +
T3 sequence (P32908 whole entry, chain 1 of 4, one chain of several): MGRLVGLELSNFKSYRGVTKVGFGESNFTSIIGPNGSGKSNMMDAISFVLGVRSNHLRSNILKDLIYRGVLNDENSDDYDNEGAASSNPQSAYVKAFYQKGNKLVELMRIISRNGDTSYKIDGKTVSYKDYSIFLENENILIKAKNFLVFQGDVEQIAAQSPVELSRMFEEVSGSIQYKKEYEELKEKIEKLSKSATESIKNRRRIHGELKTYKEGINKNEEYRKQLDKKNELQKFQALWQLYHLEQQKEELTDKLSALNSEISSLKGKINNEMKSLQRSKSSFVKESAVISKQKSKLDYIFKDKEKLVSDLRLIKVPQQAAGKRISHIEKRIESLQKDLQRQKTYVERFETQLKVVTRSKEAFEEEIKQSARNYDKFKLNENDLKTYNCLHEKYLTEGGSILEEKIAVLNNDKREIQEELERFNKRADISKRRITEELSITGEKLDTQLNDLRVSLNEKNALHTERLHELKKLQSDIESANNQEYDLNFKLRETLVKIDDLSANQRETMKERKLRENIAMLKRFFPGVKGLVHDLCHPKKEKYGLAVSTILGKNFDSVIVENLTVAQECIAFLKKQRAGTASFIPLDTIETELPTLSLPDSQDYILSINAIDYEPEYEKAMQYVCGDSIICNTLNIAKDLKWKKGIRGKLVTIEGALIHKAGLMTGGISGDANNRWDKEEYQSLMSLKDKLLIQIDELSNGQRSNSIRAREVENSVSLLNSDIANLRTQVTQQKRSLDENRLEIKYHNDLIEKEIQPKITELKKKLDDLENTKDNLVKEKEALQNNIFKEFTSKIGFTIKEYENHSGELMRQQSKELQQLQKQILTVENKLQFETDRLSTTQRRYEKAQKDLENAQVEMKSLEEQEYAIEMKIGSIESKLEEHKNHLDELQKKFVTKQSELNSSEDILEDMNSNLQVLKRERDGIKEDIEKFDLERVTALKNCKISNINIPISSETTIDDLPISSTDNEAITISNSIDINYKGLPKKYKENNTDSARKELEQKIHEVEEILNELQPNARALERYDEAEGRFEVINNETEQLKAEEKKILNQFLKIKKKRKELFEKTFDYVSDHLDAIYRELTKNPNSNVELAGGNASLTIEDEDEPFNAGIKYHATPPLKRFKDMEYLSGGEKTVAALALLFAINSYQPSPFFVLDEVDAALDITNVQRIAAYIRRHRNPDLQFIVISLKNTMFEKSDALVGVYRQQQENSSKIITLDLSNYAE
T3 sequence (Q12158 whole entry, chain 3 of 4, one chain of several): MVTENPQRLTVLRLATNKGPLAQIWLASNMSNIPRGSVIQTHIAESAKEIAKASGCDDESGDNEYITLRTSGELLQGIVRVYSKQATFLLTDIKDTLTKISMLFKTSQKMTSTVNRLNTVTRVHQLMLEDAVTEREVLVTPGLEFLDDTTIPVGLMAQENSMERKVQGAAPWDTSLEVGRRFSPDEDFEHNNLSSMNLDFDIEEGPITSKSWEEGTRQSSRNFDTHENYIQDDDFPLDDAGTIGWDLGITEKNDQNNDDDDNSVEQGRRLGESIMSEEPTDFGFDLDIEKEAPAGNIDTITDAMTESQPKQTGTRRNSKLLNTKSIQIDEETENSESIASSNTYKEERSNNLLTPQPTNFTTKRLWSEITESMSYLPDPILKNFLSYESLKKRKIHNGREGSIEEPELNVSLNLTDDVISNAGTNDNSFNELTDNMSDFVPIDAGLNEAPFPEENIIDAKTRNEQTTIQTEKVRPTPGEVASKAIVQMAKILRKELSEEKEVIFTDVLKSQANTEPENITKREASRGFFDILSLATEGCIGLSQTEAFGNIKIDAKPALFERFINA

Measured: binding result

B1: Mrc1 (natural protein, S. cerevisiae (budding yeast), UniProt P25588 1-1096, looked up)
chain: MDDALHALSSLTAKKRTTTYKKVAVPILDENDNTNGNGPNDIDNPPELTGNGFLFANATLNRVKNRLEGKKAPEQNHNNGKDRSENSLPTQLISNLYDGGEELEKSEVKDNSYSEKNVSSSFTQTQRIPVSIQQDKVFNVPIHSVNDGKPTQLIKEDGLVNETSQALKTPLTTGRPGATQRIDSSGATSQTQPIKSIEPQSQIITTSSNHSNALSPKIPIIPTELIGTSPLFQSIQNRGPDTQMDVPPQTAHDEDKTQAIGIPQATHQEQKTQIDTVAQTLQDEVPHTLKIREIQSELASEDSKREKARNVEYKKPQKPIPTKKFFSKESFLADFDDSSSNEDDDIKLENAHPKPVQNDDELHENKSVELNLTDETRINEKRVPLLSSYANNLKREIDSSKCITLDLDSDSDEYGDDDMDSIKLSKDESVLPISQLSKATILNLKARLSKQNQKLSQRPNKSKDPKVDHNVLLNTLRKASRKQILDHQKEVIETKGLKLEDMAKEKEIVENLLEQEILRNKRIRQKEKRREKLEENDFQLNAHDSGSDSGSESSGFALSGNEIADYESSGSENDNRRESDSEKEDDEIILKQKKSHHVKHIINESDSDTEVEAKPKEKADESLPKRIAINLGHYGDNIGEDTDKFQETNVLDTQNIEEVMAERNTIENEVKDDVYVNEEADEAIRRQLIDKEKLQLKQKEKEHEAKIKELKKRGVTNFFEMEAEESEDEWHGIGGADGEGSDDYDSDLEKMIDDYSKNNFNPHEIREMLAAENKEMDIKMINKILYDIKNGGFRNKRAKNSLELELSDDDEDDVLQQYRLKRRELMRKRRLEIGDDAKLVKNPKSSAFFESMVEDIIEYKNPFGAEEEYNLDITSTATDLDTQDNSINVGDNTGNNEQKPVDQKNKKVIISEDFVQKSLSFLKSNNYEDFETDKELSRIQHGNDEAIEDLYTLKQNSSIKSFTNSQTDSTTSKTVNTIIDLEKRPEDEDEVENGDTSLVGVFKHPSIIKSFASRTDINDKFKEGNKTVKILKSYKTVGSSKASITYMGKTRKLIAPKRKTEGSHRYHHDHHNKKMKMKTKTKSNKLFESGQDSFDN
notes: Mrc1, budding yeast; also called Flag-tagged Mrc1; source: purified as previously described (Yeeles et al. 2017)
binds: [1] | [2] | [3]

From PMC10247859, “Replisome-cohesin interactions provided by the Tof1-Csm3 and Mrc1 cohesion establishment factors” (Chromosoma, 2023)
